Measured values published in US20250122301A1 (IBIO, published 2025).
Changes are numbered by the printed parent chain.

B1: AH05280 (human IgG1 reformatted) (antibody, V domains shown)
VH: EVRLQQSGADLMKPGASVKISCKTSGYTFSNYWTEWIKQRPGHGLEWIGEILPGSGFTNYNENFKGKATFTADTSSNTTYMQLSSLTSEDSAVYYCARGGTSVVHFDYWGQGTSLTVSS
VL: DIVMTQTPKFLLVSAGDRVTITCKASQSVNNDVLWYQQKPGQSPKLLIYYASNRYTGVPDRFTGSGYGTDFTFTISTVQAEDLAVYFCQQAYWSPYTFGGGTKLEIK
B2: AH05251 (human IgG1 reformatted) (antibody, V domains shown)
VH: EVRLQQSGAELVRSGASVKLSCTASGFNIKDYYIHWVKQRPEQGLEWIGWIDPDNGETEYAPKFQGKATMTADTSSNTAHLQLSSLTSEDTAVYYCTVFWYGNNYAGFAYWGQGTLVTVSS
VL: DVVMTQTPLSLPVNLGDQASISCRSSQSIVHSNGNTYLEWYLQKPGQSPKLLIYKVSNRFSGVPDRFSGSGSGTDFTLKISRVEAEDLGIYYCFQGSHVPPTFGGGTKLEIK
B3: BP003-T2P1D7 (human IgG1 reformatted) (antibody, V domains shown)
VH: B2 VH with E1Q, V2A, R3Y, S121A
VL: B2 VL with M4L, N14S, R82K, I90V
B4: D5 (human IgG1 reformatted) (antibody, V domains shown)
VH: QVQLQQSGAELVRPGTSVKISCKASGYTFTNYWLGWVKQRPGHGLEWIGDIYPGGGYTNYNEKFKGKATLTADTSSSTAYMQLSSLTSEDSAVYFCARVTPASWGQGTSLTVSS
VL: DIVMTQSQKFMSTSVGDRVSVTCKASQNVGTNVAWYQQKPGQSPKALIYSASYRYSGVPDRFTGSGSGTDFTLTISNVQSEDLAEYFCQQYNSYPYTFGGGTKLEMK
B5: AH05247 (human IgG1 reformatted) (antibody, V domains shown)
VH: B1 VH with E1Q, R3Q, I20M, K23R, T24A, T34I, Q82L, T87S, Y108S, S114T
VL: B4 VL with Y96L, M106I
B6: BP003-T2P1E3 (human IgG1 reformatted) (antibody, V domains shown)
VH: QIQLQQSGAELVRPGTSVKMSCKAAGYTFTNYWIGWVKQRPGHGLEWIGDIHPGGGYTNYNEKFKGKATLTADTSSSTAYMQLSSLTSEDSAIYYCTSRNFAYWGQGTPVTVSS
VL: B4 VL with M4L, M106I
B7: AH04509 (human IgG1 reformatted) (antibody, V domains shown)
VH: B6 VH with I51F, H52Y, G56D, T58I
VL: B4 VL with I2T, V3T, M4V, K9R, A46P, S76N, S93N, Y94S, Y96L, M106I
notes: also called AH4509
B8: AH04524 (human IgG1 reformatted) (antibody, V domains shown)
VH: B6 VH with G56D, T58S, Q82S, P109L, S114A
VL: B4 VL with M106I
notes: also called AH4524
B9: AH05274 (human IgG1 reformatted) (antibody, V domains shown)
VH: B4 VH with V37I
VL: B4 VL with V3Q, M106I
B10: AH04518 (human IgG1 reformatted) (antibody, V domains shown)
VH: B6 VH with I2V, G44D, G56D, T58S, Q82N, P109L, S114A
VL: B4 VL with V3L, M4L, M106I
notes: also called AH4518
B11: AH04507 (human IgG1 reformatted) (antibody, V domains shown)
VH: B6 VH with I2V, T58I, N59D, K65T, T97V, Y103K, P109L, S114A
VL: B4 VL with I2T, V3T, M4V, M106I
B12: BP003-T2P1C4 (human IgG1 reformatted) (antibody, V domains shown)
VH: B4 VH with S109T, L110V
VL: B4 VL with V3Q, T13A
B13: AH04525 (human IgG1 reformatted) (antibody, V domains shown)
VH: B6 VH with I2V, V37I, G56D, S75F, S98G, P109L
VL: B4 VL with I2N, M4L
notes: also called AH4525
B14: AH04503 (human IgG1 reformatted) (antibody, V domains shown)
VH: B6 VH with I2V, S7P, T30S, T58I, K65T, T97V, Y103N, P109L, S114A
VL: B4 VL with V3Q, Y96W, M106I
notes: also called AH4503
B15: BP003-T2P1D10 (human IgG1 reformatted) (antibody, V domains shown)
VH: B4 VH with V2I, S7P
VL: B4 VL with M4I, F62L, S93R, M106I
B16: D17 (human IgG1 reformatted) (antibody, V domains shown)
VH: B4 VH with V2I, S109T, S114A
VL: B4 VL with V3L, M4L, Y96L, M106I
B17: AH04511 (human IgG1 reformatted) (antibody, V domains shown)
VH: B6 VH with T30S, T58I, K65T, T97V, Y103N, P109L, S114A
VL: B4 VL with T5S, M106I
notes: also called AH4511
B18: AH04526 (human IgG1 reformatted) (antibody, V domains shown)
VH: B6 VH with I2V, G56D, T58S, Q82N
VL: B4 VL with I2T, V3T, M4V
B19: AH04505 (human IgG1 reformatted) (antibody, V domains shown)
VH: B6 VH with Q1D, I2V, D90G, P109L, S114A
VL: B4 VL with I2T, V3T, M4V
notes: also called AH4505
B20: AH04502 (human IgG1 reformatted) (antibody, V domains shown)
VH: B6 VH with Y80D, P109L, S114A
VL: B4 VL with T31I, M106I
notes: also called AH4502
B21: AH04522 (human IgG1 reformatted) (antibody, V domains shown)
VH: B6 VH with P109L, S114A
VL: B4 VL with I2T, V3T, M4V, S26G, M106I
B22: AH04501 (human IgG1 reformatted) (antibody, V domains shown)
VH: B6 VH with I2V, S7P, G56D, T58S, Q82N, P109L, S114A
VL: B4 VL with I2V, S7T, M11T, M106I
notes: also called AH4501
B23: AH04527 (human IgG1 reformatted) (antibody, V domains shown)
VH: B6 VH with I2V, T58I, N59D, K65T, T97V, Y103K, P109L, S114A
VL: B4 VL with I2V, M106I
B24: AH04523 (human IgG1 reformatted) (antibody, V domains shown)
VH: B6 VH with G56S, K63N, L70F, A79T, Y95F, Y103K
VL: B4 VL with M4L, M106I
notes: also called AH4523
B25: AH05259 (human IgG1 reformatted) (antibody, V domains shown)
VH: QVQLQQSGAELVRPGVSVKISCKGSGYTFTDYAMHWVKQSHAKSLEWIGVISTYSGDVSYNQKFKGKATMTVDKSSSTAYMELARLTSEDSAIYYCARGVTFDSWGQGTSLTVSS
VL: DIQMTQTPASLSASVGETVTITCRASENIYSFLEWFQQKQGKSPQLLVYNAKTLAEGVPSRFSVSGSGTQFSLKINSLQPEDFGSYYCQHHYGIPYTFGGGTKLEIK
B26: AH05258 (human IgG1 reformatted) (antibody, V domains shown)
VH: B25 VH with V2I, S110T
VL: DIVMTQSHKFMSTSVGDRVSITCKASQDVSTAVAWYQQKPGQSPKLLIYSASYRYTGVPDRFTGSGSGTDFTFTISSVQAEDLAVYYCQQHYSTPFTFGSGTKLEIK
B27: AH05268 (human IgG1 reformatted) (antibody, V domains shown)
VH: B25 VH with V18L, K38R, V58A, S59L, M81L, E89D, S104Y, S110T
VL: DVQMTQSPSSMYASLGERVTFTCKASQDINRYLSWFQQKPGKSPKTLIYRANRLVDGVPSRFSGSGSGQNYSLTISSLEYEDMGIYYCLQYDEFPYTFGGGTKLEIK
B28: AH05271 (human IgG1 reformatted) (antibody, V domains shown)
VH: B25 VH with I93T, S110T
VL: DIQMTQTPASLAASVGETVTITCRASENIYFSLAWYQQKQGKSPQLLIYNANTLEDGVPSRFSGSGSGTQFSMKINNMQPEDTATYFCKQAYDVPWTFGGGTKLEIK
B29: AH05257 (human IgG1 reformatted) (antibody, V domains shown)
VH: B25 VH with V18L, K38R, V58A, S59I, M81L, S104Y, S110T, S115A
VL: DIVMTQSTSSLSASLGDRVTISCRASQDISNYLSWYQQKPDGTIKLLIYYTSRLHSGVSSRFSGSGSGTDYSLTISNLEQEDFATYFCQQGHTLPPTFGGGTKLEIK
B30: D36 (human IgG1 reformatted) (antibody, V domains shown)
VH: B25 VH with S7P, V18L, K38R, V58A, S59L, M81L, S104Y, S110T
VL: B25 VL with I2V, Q3V, T7S, I29S, F32Y, F36Y, V64G, S85T, I94T, I106M
B31: AH05256 (human IgG1 reformatted) (antibody, V domains shown)
VH: QVQLQQPGAELAKPGASVKMSCKASGYTFTRYWIHWVKQRPGQDLEWIGYINPRTDYTEYNQKFKDKATLTADKSSSTAYMQLSSLTSDDSAVYYCARHGYFDYWGQGTTLTVSS
VL: DIQMTQTTSSLSASLGDRVTISCRASQDISNYLNWYQQKPDGTVKLLIYHTSRLQSGVPSRFTGSGSGTDYSLTISNLEQEDIATYFCQQSNSLPPTFGGGTKLEIK
B32: AH04750 (human IgG1 reformatted) (antibody, V domains shown)
VH: QVQLQQPGAEMAKPGASVKMSCKASGYTSTAYWIHWVKQRPGQGLEWIGYITPSTGYTEYNQKFEDKATLTADKSSNTAYMQLNSLTSEDSAVYYCARGGYFDYWGQGTTVTVSS
VL: B31 VL with H50Y, Q55H, T63S, S91G, S93T, I106M

Each binder was assayed against T1, CD25 on CD25+ cells (SUDHL-1, HEK IL-2 reporter cells, primary human regulatory T cells) (human, UniProt P01589 22-272) (assay: flow cytometry, dose response on CD25+ SUDHL-1 cells;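 also: antibody binding to cells read as median fluorescence intensity of an AF647 anti-human Fc secondary, DAPI+ dead cells excluded, 20 min on ice, 5-fold dilutions from 10 ug/mL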).
T1 construct: whole, on cells; also called IL-2Ralpha
T1 sequence (looked up): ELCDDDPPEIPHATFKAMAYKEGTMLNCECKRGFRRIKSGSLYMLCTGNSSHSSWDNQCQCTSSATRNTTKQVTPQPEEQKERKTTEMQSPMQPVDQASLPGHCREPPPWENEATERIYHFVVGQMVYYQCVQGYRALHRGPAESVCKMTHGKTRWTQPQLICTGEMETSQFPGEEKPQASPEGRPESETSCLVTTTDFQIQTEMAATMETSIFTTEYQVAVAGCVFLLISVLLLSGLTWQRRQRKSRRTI

Row | Binder | EC50
1 | B1 | 0.387 µg/mL
2 | B2 | 0.132 µg/mL
3 | B3 | 0.125 µg/mL
4 | B4 | 0.603 µg/mL
5 | B5 | 0.0977 µg/mL
6 | B6 | 0.125 µg/mL
7 | B7 | 0.121 µg/mL
8 | B8 | 0.116 µg/mL
9 | B9 | 0.228 µg/mL
10 | B10 | 0.114 µg/mL
11 | B11 | 0.089 µg/mL
12 | B12 | 0.294 µg/mL
13 | B13 | 0.109 µg/mL
14 | B14 | 0.145 µg/mL
15 | B15 | 0.165 µg/mL
16 | B16 | 0.0957 µg/mL

Row | Binder | EC50
17 | B17 | 0.108 µg/mL
18 | B18 | 0.164 µg/mL
19 | B19 | 0.106 µg/mL
20 | B20 | 0.109 µg/mL
21 | B21 | 0.11 µg/mL
22 | B22 | 0.159 µg/mL
23 | B23 | 0.0959 µg/mL
24 | B24 | 0.108 µg/mL
25 | B25 | 0.121 µg/mL
26 | B26 | 0.184 µg/mL
27 | B27 | 0.108 µg/mL
28 | B28 | 0.25 µg/mL
29 | B29 | 0.113 µg/mL
30 | B30 | 1.49 µg/mL
31 | B31 | 0.0715 µg/mL
32 | B32 | 0.107 µg/mL
